Data: patent US20260209362A1 (VIB VZW, published 2026)
Where a chain is given by its changes, count along the chain named.

B1: anti-IL-12Rβ2 VHH clone 3CAHM40 (VHH, not shown: small tags and cut ends)
VHH: QVQLQESGGGSVQAGGSLRLSCAVSGRTVSDYAMGWFRQAPGKEREFVAAMSSSETTVYPNSMKGRITISRDNAKNAVYLQLNALKPEDTAVYYCSMGPIATFQGLARQNEYHYWGQGTQVTVSS
notes: tested as periplasmic extract
B2: anti-IL-12Rβ2 VHH clone 3CRHM12 (VHH, not shown: small tags and cut ends)
VHH: B1 VHH with M63V, L82M, A101V
notes: tested as periplasmic extract
B3: anti-IL-12Rβ2 VHH clone 2CAM71 (VHH, not shown: small tags and cut ends)
VHH: QVQLQESGGGLVQAGGSLRLSCAASGRTLSNSVMGWFRQAPGKEREFVAALMWSAGSEFYTDSVKGRFSISGDGAKNTVYLQMNSLKAEDTAVYYCAAKNPPHRWSDIGKSPHYEYWGQGTQVTVSS
notes: tested as periplasmic extract
B4: anti-IL-12Rβ2 VHH clone 2CAM62 (VHH, not shown: small tags and cut ends)
VHH: QVQLQESGGGLVQAEGSLRLSCVASGRTFSSYGMGWFRQAPGKEREFVTGISSAGSWIGDITSYADSVKGRFTISRDNAKNILYLQMNSLKPEDTAVYYCAAAYHGSRYYVGSTANEYTTWGQGTQVTVSS
notes: tested as periplasmic extract; also called 20493
B5: anti-IL-12Rβ2 VHH clone 2CAM45 (VHH, not shown: small tags and cut ends)
VHH: QVQLQESGGGLVQAGGSLRLSCAASGFTFDDYAIGWFRQAPGKEREGISCISSSDYGTYYAGSVKGRFTISSDNAKNTVYLQMNSLKPEDTAVYYCAAEAISEYDCLGINYGMDYWGKGTQVTVSS
notes: tested as periplasmic extract; also called 20485
B6: anti-IL-12Rβ2 VHH clone 2CRM42 (VHH, not shown: small tags and cut ends)
VHH: QVQLQESGGGLVQPGESLRLSCQASGRTFSNYRMGWFRQAPGKEREFVAGINWDGGHTYYTDSVKGRFTISRDNAKNTVYLQMNSLKPEDTAVYQCAVRVREYGSSRYEDQFDYWGQGTQVTVSS
notes: tested as periplasmic extract; also called 20449
B7: anti-IL-12Rβ2 VHH clone 3CAM11 (VHH, not shown: small tags and cut ends)
VHH: QVQLQESGGGLVQAGGSLRLSCAASGRNLSTYAMGWIRQAPGKEREFVAAISWAGSTTYYADSVKGRFIISRDNAKNTLNLQMNSLKPEDTAVYYCAAPPYVTTTYYATPPSDIRDYHYWGQGTQVTVSS
notes: tested as periplasmic extract; also called 20508
B8: anti-IL-12Rβ2 VHH clone 2CRM40 (VHH, not shown: small tags and cut ends)
VHH: QVQLQESGGGLVQTGGSLRLSCAASGRTYAMAWFRQAPGKEREFAAVIIGGDRTYYANSVKDRFTISRDNAKETVYLQMNNLKPEDTAVYYCAANRRLYNSGRGYSQSEYEYWGQGTQVTVSS
notes: tested as periplasmic extract; also called 20448
B9: anti-IL-12Rβ2 VHH clone 2CRMS29 (VHH, not shown: small tags and cut ends)
VHH: QVQLQESGGGLVQAGGPLRLSCAASGRTFSGSAMGWFRQAPGKEREFVAAITWVGGFTYYADSVKGRFTISRDNAKNTVYLQMNNLSPEDTAVYSCAAQAYHKSGYYYPPLYDYWGQGTQVTVSS
notes: tested as periplasmic extract; also called 20521
B10: anti-IL-12Rβ2 VHH clone 3CRHM85 (VHH, not shown: small tags and cut ends)
VHH: QVQLQESGGGLVQPGGSLRLSCAASRRTFSKHAMAWFRQAPGKEREFVAVVRWSGIITYYADSVKGRFTISRDDAKNTVYLQMDSLKPEDTAVYYCAAGDYRGNGYYVPGMYDYWGQGTQVTVSS
notes: tested as periplasmic extract; also called 21061
B11: anti-IL-12Rβ2 VHH clone 3CAM10 (VHH, not shown: small tags and cut ends)
VHH: QVQLQESGGGLVQAGGSLRLSCAASGRTFSDYPMAWFRQAPGKEREFVAGISNGGTAYYADSVKGRFTISRDNTRNTVYLQMNRLKVEDTAVYYCAAVHLLSNLRGADPHEADYWGQGTQVTVSS
notes: tested as periplasmic extract; also called 20507
B12: anti-IL-12Rβ2 VHH clone 2CRM28 (VHH, not shown: small tags and cut ends)
VHH: QVQLQESGGGLVQPGGSLRLSCAASGRAWNEYNMGWFRQAPGKEREFVALIWWSSGNTYYADSVKGRFTISRDKVKNTVYLQMNSLKPEDTAVYYCAAGPTFNKYEYWGQGTQVTVSS
notes: tested as periplasmic extract
B13: anti-IL-12Rβ2 VHH clone 2CRM83 (VHH, not shown: small tags and cut ends)
VHH: QVQLQESGGGLVQPGGSLRLSCAASGFTFSAYAMSWVRQAPGKGLEWVSSISSTGTNPNYADSVKGRFTISRDNAKNTLYLQMNSLKPEDTAVYYCAEAYRNYSPPGQGTQVTVSS
notes: tested as periplasmic extract; also called 20451
B14: anti-IL-12Rβ2 VHH clone 2CAM88 (VHH, not shown: small tags and cut ends)
VHH: QVQLQESGGGLVPPGDSLRLSCAASGRTFSSYTMGWFRQAPGKEREFVARISQDGGSTYYADSMKGRFTVARDNAKNTVYLQMNSLKPEDTAVYYCAADMIKWGLRVGVDSFKYWGQGTQVTVSS
notes: tested as periplasmic extract
B15: anti-IL-12Rβ2 VHH clone 2CAM18 (VHH)
VHH: QVQLQESGGGLVQVGDSLKLSCVASGTTFSTHVMAWYRQAPGKQREWVASIDSAGTTNYKDAVKGRFTISRDNVKRTVYLQMNNLKPEDSAVYLCSIPSRNAWGQGTQVTVSS
notes: tested as periplasmic extract; also called 20475
B16: anti-IL-12Rβ2 VHH clone 3CAM36 (VHH, not shown: small tags and cut ends)
VHH: QVQLQESGGGLVQAGESLTLSCTASGRTFSSYGMGWFRQAPGKERDFVAAISRDARYTDYADSVKGRFTISKDNAKNTAYLQMNSLNPEDTAVYFCAAAYTYSGSHYVTARSGDYNYWGQGTQVTVSS
notes: tested as periplasmic extract; also called 20511
B17: anti-IL-12Rβ2 VHH clone 2CAM67 (VHH, not shown: small tags and cut ends)
VHH: QVQLQESGGGEVQAGGSLRLSCVASGRTFSVYTTGWFRQAPGKEREFVAGMSGTRTYYADSVKGRFTISRDNAKNTVYLQMNSLKPDDTAVYYCAERRYGGPSLVWDEYDYRGQGTQVTVSS
notes: tested as periplasmic extract; also called 20494
B18: anti-IL-12Rβ2 VHH clone 3CRM95 (VHH, not shown: small tags and cut ends)
VHH: QVQLQESGGGLVQAGDFLRLSCVFSGGTFGDYSMGWFRQAPGKEREFVAAIRWSGDSTQYAEAVKGRFTISRDNAKSTVYLQMSSLKPEDTAVYYCAADPSYYIGPNHTPSRYRDWGQGTQVTVSS
notes: tested as periplasmic extract; also called 20465
B19: anti-IL-12Rβ2 VHH clone 3CRHM20 (VHH, not shown: small tags and cut ends)
VHH: QVQLQESGGGLVQAGGSLRLSCAASGRTFSKSTMGWFRQTPGKEREFVAAITWTDTEVYANSVKDRFTISRDNAKNTFYLQMHSLKLEDTAVYYCAGDRYGSSRDSVFSSPTNYPYWGQGTQVTVSS
notes: tested as periplasmic extract; also called 21055
B20: anti-IL-12Rβ2 VHH clone 3CRM45 (VHH, not shown: small tags and cut ends)
VHH: QVQLQESGGGLVQAGGSLRLSCTASGSIFAIDDMYWYRQAPGKEREFVAYITATNSANYLDSVNGRFTISRDNAKNSVYLQMNSLKPEDTAVYYCNAKQIVGFQIDEYWGQGTQVTVSS
notes: tested as periplasmic extract; also called 20458
B21: anti-IL-12Rβ2 VHH clone 2CAMS29 (VHH, not shown: small tags and cut ends)
VHH: QVQLQESGGGLVQAGGSLRLSCAASGLTSSTYVIGWFRQAPGKEREFVAAIMLSGGTTIYADSLKGRCTIYKDNAKNTVYLQMNSLKLEDTAVYYCASGLIYRYSDFPRSQKYNFWGQGTQVTVSS
notes: tested as periplasmic extract; also called 20534
B22: anti-IL-12Rβ2 VHH clone 2CAM39 (VHH, not shown: small tags and cut ends)
VHH: QVQLQESGGGLVQAGGSLRLSCAASGRTFSTYAMGWFRQAPGKEREFVAAISWSGGSTYYADSVKGRFTISRDNAKNTGYLQMNSLKPEDTAVYVCAADAEDPILYGSSWNNRRKEYDYWGQGTQVTVSS
notes: tested as periplasmic extract; also called 20482

biological target: T1, mouse IL-12Rβ2 expressed on cells (mouse, UniProt P97378 24-874); assay: flow cytometry, P.E. VHH on HEK293T cells stably expressing mIL-12RB2
T1 construct: HEK293T cells, stably transduced (cDNA NM_008354); also called mIL-12RB2
T1 sequence: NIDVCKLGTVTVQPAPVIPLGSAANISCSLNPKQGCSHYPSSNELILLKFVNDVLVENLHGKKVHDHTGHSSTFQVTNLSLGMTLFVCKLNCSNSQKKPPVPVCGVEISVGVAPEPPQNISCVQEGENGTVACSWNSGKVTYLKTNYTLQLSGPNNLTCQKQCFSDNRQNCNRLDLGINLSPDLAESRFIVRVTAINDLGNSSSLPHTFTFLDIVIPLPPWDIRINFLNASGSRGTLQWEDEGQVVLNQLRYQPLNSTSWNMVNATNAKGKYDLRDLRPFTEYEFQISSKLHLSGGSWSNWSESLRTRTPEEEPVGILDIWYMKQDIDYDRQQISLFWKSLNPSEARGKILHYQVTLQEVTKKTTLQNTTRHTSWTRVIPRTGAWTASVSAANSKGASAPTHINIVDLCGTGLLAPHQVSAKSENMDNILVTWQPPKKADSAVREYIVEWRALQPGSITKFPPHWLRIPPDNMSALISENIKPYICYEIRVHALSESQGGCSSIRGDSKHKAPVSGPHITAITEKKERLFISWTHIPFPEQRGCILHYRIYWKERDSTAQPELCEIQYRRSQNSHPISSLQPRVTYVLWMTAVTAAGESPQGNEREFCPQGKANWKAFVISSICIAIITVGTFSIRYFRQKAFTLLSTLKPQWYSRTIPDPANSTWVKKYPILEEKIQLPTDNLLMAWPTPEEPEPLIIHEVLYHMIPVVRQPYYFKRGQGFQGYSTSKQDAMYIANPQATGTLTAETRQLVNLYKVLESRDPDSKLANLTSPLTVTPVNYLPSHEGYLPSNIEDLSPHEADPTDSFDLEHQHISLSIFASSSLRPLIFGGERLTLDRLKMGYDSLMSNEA

Row | Binder | % cells bound [%] | dMFI
1 | B1 | 1.97 | -1.8
2 | B2 | 2.2 | 4.8
3 | B3 | 58.3 | 322
4 | B4 | 11.2 | 70
5 | B5 | 6.77 | 51
6 | B6 | 2.93 | 22
7 | B7 | 37.8 | 181
8 | B8 | 32.8 | 166
9 | B9 | 8.42 | 58
10 | B10 | 1.7 | 3.5
11 | B11 | 41.7 | 212
12 | B12 | 19.5 | 100
13 | B13 | 24.9 | 122
14 | B14 | 14.8 | 93
15 | B15 | 3.19 | 13.6
16 | B16 | 29 | 151
17 | B17 | 13.5 | 90
18 | B18 | 6.74 | 51
19 | B19 | 2.83 | 7.4
20 | B20 | 18.3 | 110
21 | B21 | 14.5 | 99
22 | B22 | 48.7 | 255
